Experimental data: US20160031996A1 (CSL, published 2016)
Substitutions are numbered along the chain they refer to. In names and notes the source's numbering stands.

Assays:
[1] = molecular target: human IL-3Rα E51Q/P88T double mutant, full length (human) (UniProt P26951); experiment: flow cytometry, MFI normalised to WT
[2] = molecular target: human IL-3Rα E51Q/S59A double mutant, full length (human) (UniProt P26951); experiment: flow cytometry, MFI normalised to WT
[3] = molecular target: human IL-3Rα E51Q/S59A/P88T triple mutant, full length (human) (UniProt P26951); experiment: flow cytometry, MFI normalised to WT
[4] = molecular target: human IL-3Rα S59A/P88T double mutant, full length (human) (UniProt P26951); experiment: flow cytometry, MFI normalised to WT
[5] = molecular target: T1, full length human IL-3Rα, wild type (human, UniProt P26951 19-378); experiment: flow cytometry, MFI normalised to WT (reference, set as 100%)
T1 construct: expressed in 293F cells; also called WT
T1 sequence: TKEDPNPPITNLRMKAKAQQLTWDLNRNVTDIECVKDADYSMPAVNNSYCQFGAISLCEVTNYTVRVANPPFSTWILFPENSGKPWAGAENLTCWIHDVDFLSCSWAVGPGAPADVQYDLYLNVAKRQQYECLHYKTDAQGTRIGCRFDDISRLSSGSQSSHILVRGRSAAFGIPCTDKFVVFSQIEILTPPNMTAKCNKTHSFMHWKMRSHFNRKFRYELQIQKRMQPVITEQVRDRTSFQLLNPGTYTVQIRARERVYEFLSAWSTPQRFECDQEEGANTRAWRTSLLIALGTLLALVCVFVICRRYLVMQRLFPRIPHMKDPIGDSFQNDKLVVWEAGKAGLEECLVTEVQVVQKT
Experimental: Median fluorescence intensity (MFI) of each antibody was determined for WT IL-3Rα and for each IL-3Rα mutant. The MFI of WT IL-3Rα staining for each antibody was set as 100% then the MFI of each mutant was normalized to a percent of WT staining.

human IL-3 = molecular target: T2, human IL-3 (human, UniProt P08700 20-152); experiment: flow cytometry, 293F cells expressing mutant IL-3Rα and CD131
T2 sequence (looked up): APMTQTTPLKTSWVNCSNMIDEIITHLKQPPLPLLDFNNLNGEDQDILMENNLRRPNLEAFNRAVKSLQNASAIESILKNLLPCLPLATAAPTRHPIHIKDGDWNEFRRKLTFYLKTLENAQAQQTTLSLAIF
Experimental: STAT5 activity was measured by flow cytometry after intracellular staining with a phosphoSTAT5 antibody (pSTAT5).

## anti-human IL-3Rα monoclonal antibody 9F5
[1]
  MFI as percent of WT staining: 70.1 % of WT MFI
[2]
  MFI as percent of WT staining: 87 % of WT MFI
[3]
  MFI as percent of WT staining: 32.7 % of WT MFI
[4]
  MFI as percent of WT staining: 95.6 % of WT MFI
[5]
  MFI as percent of WT staining: 100 % of WT MFI

B1: human IL-3Rα E51Q/S59A double mutant, full length (receptor)
chain: T1 sequence with E33Q, S41A
Human IL-3
  binding result: binds

B2: human IL-3Rα E51Q/S59A/P88T triple mutant, full length (receptor)
chain: T1 sequence with E33Q, S41A, P70T
Human IL-3
  binding result: binds

B3: human IL-3Rα E51Q/P88T double mutant, full length (receptor)
chain: T1 sequence with E33Q, P70T
Human IL-3
  binding result: binds

B4: human IL-3Rα S59A/P88T double mutant, full length (receptor)
chain: T1 sequence with S41A, P70T
Human IL-3
  binding result: binds
